Consider three molecules from US20170313770A1 (ORDER MADE MEDICAL RESEARCH, published 2017).

The target in this assay is IMI4C4a antibody (monoclonal antibody produced from Mouse-Mouse hybridoma IMI4C4a). Kind of assay: competitive inhibition ELISA, peptide preincubated with IMI4C4a (333 pM), immobilized ICD4.
IMI4C4a antibody (monoclonal antibody produced from Mouse-Mouse hybridoma IMI4C4a), sequence (VH, as listed by the source, chain 1 of 2): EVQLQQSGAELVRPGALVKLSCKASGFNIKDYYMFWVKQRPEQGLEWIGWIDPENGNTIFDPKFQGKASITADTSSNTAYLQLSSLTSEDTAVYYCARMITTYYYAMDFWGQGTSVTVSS
IMI4C4a antibody (monoclonal antibody produced from Mouse-Mouse hybridoma IMI4C4a), sequence (V domain, as listed by the source, chain 2 of 2): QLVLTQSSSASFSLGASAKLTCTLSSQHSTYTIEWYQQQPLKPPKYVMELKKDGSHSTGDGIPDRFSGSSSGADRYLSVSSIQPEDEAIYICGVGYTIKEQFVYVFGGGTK

B1: ICD4_242-258 (chemically synthesized peptide) (peptide)
peptide: TQKAGLPSKNLTVSQNQ
Turning to B1, the “molar ratio to the antibody at which an inhibitory effect started” value is 50 fold molar ratio relative to the antibody concentration and the “molar ratio to the antibody giving significant inhibition” value was ≥ 500 fold molar ratio relative to the antibody concentration.

B2: ICD4_227-242 (chemically synthesized peptide) (peptide)
peptide: THCHETEESTIKDSTT
As to B2, the “molar ratio to the antibody without inhibition” value is > 10000 fold molar ratio relative to the antibody concentration.

B3: ICD4_235-250 (chemically synthesized peptide) (peptide)
peptide: STIKDSTTQKAGLPSK
Regarding B3, the “molar ratio to the antibody without inhibition” value is > 10000 fold molar ratio relative to the antibody concentration.
